# Reference: IntAct's records for PubMed 22949657
# Target: T1, tp8l2_human TNFAIP8L2 (UniProt Q6P589)
# T1 sequence: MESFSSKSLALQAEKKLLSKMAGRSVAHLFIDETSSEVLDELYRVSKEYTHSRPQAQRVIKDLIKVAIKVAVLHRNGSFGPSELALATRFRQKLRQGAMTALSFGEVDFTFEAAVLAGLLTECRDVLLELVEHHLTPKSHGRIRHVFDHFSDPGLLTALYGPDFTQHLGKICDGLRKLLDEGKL
substance,measurement,value
Ras-related C3 botulinum toxin substrate 1 (Homo sapiens) (from UniProt P63000-1) C189S,effect of a mutation on the interaction,disrupting interaction strength
